Values quoted from earlier work in patent publication US9358478B2, “Spray-drying apparatus and methods of using the same” (Bend Research, Inc., priority 2010, dated 2016).

Settings: in words

Peptide YY (PYY) [Active Agent 3]
solubility in water: soluble
